Publication PMC2770179 (Journal of molecular catalysis. B, Enzymatic, 2009)
Changes are numbered by the printed parent chain.

Legend:
[1] = molecular target: T1, L2S of hE2 (residues 128-330) mutant R297A (human, UniProt P10515 214-416, R297A); experiment: SPR
T1 sequence (looked up): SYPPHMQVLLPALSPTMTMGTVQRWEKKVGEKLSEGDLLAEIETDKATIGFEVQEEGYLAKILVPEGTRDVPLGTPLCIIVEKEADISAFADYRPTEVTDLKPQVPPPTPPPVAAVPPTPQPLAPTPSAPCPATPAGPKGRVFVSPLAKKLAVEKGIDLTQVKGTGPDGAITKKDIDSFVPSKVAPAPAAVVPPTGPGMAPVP

[2] = molecular target: T2, L2S of hE2 (residues 128-330) mutant K276A (human, UniProt P10515 214-416, K276A); experiment: SPR
T2 sequence (looked up): T1 sequence (looked up) with K149A, A170R

fold increase in KD against wild-type L2S [1]: 6.8 fold
fold increase in KD against wild-type L2S [2]: ~86 fold
B1: human pyruvate dehydrogenase (E1), wild type, α2β2 heterotetramer (complex)
chain 1: FANDATFEIKKCDLHRLEEGPPVTTVLTREDGLKYYRMMQTVRRMELKADQLYKQKIIRGFCHLCDGQEACCVGLEAGINPTDHLITAYRAHGFTFTRGLSVREILAELTGRKGGCAKGKGGSMHMYAKNFYGGNGIVGAQVPLGAGIALACKYNGKDEVCLTLYGDGAANQGQIFEAYNMAALWKLPCIFICENNRYGMGTSVERAAASTDYYKRGDFIPGLRVDGMDILCVREATRFAAAYCRSGKGPILMELQTYRYHGHSMSDPGVSYRTREEIQEVRSKSDPIMLLKDRMVNSNLASVEELKEIDVEVRKEIEDAAQFATADPEPPLEELGYHIYSSDPPFEVRGANQWIKFKSVS
chain 2: LQVTVRDAINQGMDEELERDEKVFLLGEEVAQYDGAYKVSRGLWKKYGDKRIIDTPISEMGFAGIAVGAAMAGLRPICEFMTFNFSMQAIDQVINSAAKTYYMSGGLQPVPIVFRGPNGASAGVAAQHSQCFAAWYGHCPGLKVVSPWNSEDAKGLIKSAIRDNNPVVVLENELMYGVPFEFPPEAQSKDFLIPIGKAKIERQGTHITVVSHSRPVGHCLEAAAVLSKEGVECEVINMRTIRPMDMETIEASVMKTNHLVTVEGGWPQFGVGAEICARIMEGPAFNFLDAPAVRVTGADVPMPYAKILEDNSIPQVKDIIFAIKKTLNI
